Results on 1 molecule are retold here after publication PMC3299909 (Molecular Cell, 2012).

The experiment deals with Sec5 (bone marrow-derived macrophages) (mouse (endogenous in bone …, UniProt Q9D4H1 1-924)). The experiment in a line: co-IP.
Sequence of Sec5 (bone marrow-derived macrophages) (mouse (Q9D4H1 whole entry): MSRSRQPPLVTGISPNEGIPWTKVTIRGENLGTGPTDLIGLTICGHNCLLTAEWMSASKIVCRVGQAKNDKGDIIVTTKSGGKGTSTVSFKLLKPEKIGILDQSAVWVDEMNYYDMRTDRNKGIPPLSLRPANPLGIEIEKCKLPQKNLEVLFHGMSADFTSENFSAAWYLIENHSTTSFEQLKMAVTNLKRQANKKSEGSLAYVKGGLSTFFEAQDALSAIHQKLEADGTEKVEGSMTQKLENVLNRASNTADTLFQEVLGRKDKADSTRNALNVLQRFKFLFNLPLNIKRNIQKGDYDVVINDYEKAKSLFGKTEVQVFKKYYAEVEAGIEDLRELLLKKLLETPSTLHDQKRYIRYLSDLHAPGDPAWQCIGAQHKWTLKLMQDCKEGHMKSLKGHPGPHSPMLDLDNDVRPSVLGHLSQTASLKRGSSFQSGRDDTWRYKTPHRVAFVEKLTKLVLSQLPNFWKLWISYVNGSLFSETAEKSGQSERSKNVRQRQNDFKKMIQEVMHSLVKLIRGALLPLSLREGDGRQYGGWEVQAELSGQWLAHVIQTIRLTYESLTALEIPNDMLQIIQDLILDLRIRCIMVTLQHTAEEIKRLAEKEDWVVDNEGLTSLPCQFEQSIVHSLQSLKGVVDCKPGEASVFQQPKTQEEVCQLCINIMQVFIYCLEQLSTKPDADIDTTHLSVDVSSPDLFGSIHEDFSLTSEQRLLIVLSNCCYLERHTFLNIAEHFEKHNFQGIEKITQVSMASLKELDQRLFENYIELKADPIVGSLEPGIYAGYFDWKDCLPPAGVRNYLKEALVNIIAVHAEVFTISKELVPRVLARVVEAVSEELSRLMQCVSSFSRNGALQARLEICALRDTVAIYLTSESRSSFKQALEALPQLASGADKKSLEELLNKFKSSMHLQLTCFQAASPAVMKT

B1: Exo84 (bone marrow-derived macrophages) (natural protein, UniProt Q6PGF7 1-716, looked up)
chain: MSDSGASRLRRQLESGGFEARLYVKQLSQQSDGDRDLQEHRQRVQALAEETAQNLKRNVYQNYRQFIETAREISYLESEMYQLSHLLTEQKSSLESIPLALLPAAAAGASAGEDTAGAGPRERGAVQAGFLPGPAGVPREGSGTGEEGKQRTLTTLLEKVEGCRDLLETPGQYLVYNGDLVEYDADHMAQLQRVHGFLMNDCLLVATWLPQRRGMYRYNALYPLDRLAVVNVKDNPPMKDMFKLLMFPESRIFQAENAKIKREWLEVLEETKRALSDKRRREQEEAAAPRAPPPVTSKGSNPFEDEDDEELATPEAEEEKVDLSMEWIQELPEDLDVCIAQRDFEGAVDLLDKLNHYLEDKPSPPPVKELRAKVDERVRQLTEVLVFELSPDRSLRGGPKATRRAVSQLIRLGQCTKACELFLRNRAAAVHTAIRQLRIEGATLLYIHKLCHVFFTSLLETAREFETDFAGTDSGCYSAFVVWARSAMGMFVDAFSKQVFDSKESLSTAAECVKVAKEHCQQLGEIGLDLTFIIHALLVKDIQGALHSYKEIIIEATKHRNSEEMWRRMNLMTPEALGKLKEEMKSCGVSNFEQYTGDDCWVNLSYTVVAFTKQTMGFLEEALKLYFPELHMVLLESLVEIILVAVQHVDYSLRCEQDPEKKAFIRQNASFLYETVLPVVERRFEEGVGKPAKQLQDLRNASRLLRVNPESTTSVV
B1: the “fold increase of the association in Tipe2-/- cells over wild type cells” value was about 3 fold.
